T1: alpha-methylacyl-CoA racemase (AMACR) (UniProt Q9UHK6 1-382)
T1 sequence: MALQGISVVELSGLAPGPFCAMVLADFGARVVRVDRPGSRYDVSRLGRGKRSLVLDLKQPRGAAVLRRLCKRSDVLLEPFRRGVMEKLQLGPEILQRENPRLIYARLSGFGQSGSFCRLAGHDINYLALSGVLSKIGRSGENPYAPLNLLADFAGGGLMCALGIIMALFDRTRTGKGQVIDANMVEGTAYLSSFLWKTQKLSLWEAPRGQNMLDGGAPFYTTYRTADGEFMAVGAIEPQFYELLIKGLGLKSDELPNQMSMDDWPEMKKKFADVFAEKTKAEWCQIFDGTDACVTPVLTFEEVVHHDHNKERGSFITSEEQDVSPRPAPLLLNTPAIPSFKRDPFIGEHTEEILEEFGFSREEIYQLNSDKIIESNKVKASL

B1: DC14 (dimeric truncated C14) (ssDNA)
DNA: AACCAAATATCTACGCATCATTTTTCCTTTAACCAAATATCTACGCATCATTTTTCCTTT

target: T1, alpha-methylacyl-CoA racemase (AMACR); assay: ELAA

Binder	Kd
B1	66.6 ± 17 nM
TGAACTACTTAGTTTTATCCACTTATCCTG (ssDNA) [truncated A24 (N30)]	477 ± 170 nM
AAAAATTTTTCCTTGTATGTCATTCTCTCA (ssDNA) [truncated B38 (N30)]	173 ± 91.8 nM
AACCAAATATCTACGCATCATTTTTCCTTT (ssDNA) [truncated C14 (N30)]	150 ± 55.8 nM
CTTTATGTGTCGGGATCAGATACACATCCG (ssDNA) [truncated A38 (N30)]	813 ± 405 nM
GTCGAACCGTAGGGGCTATCTGTTGTGGGC (ssDNA) [truncated B4 (N30)]	869 ± 215 nM
ACTTTTATCTCTCCTAACCTGTCCTGGGGT (ssDNA) [truncated C20 (N30)]	206 ± 36.4 nM

— article PMC9080631
